Source: the supplement of paper PMC9428881
± gives the standard error.

Experiment: background-corrected fluorescence of 3'-dye-labeled ssDNA relative to brightest sequence (3'-GCGCG) (fraction); higher = brighter dye fluorescence (less quenching)
Details: dye: Cy3 (3' terminal)
Outline: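 Each of 1024 permuted pentamers was synthesized as single-stranded DNA on glass slides by light-directed phosphoramidite chemistry, with a 3' Cy3 or Cy5 dye alongside. Arrays were scanned at 532 or 635 nm before and after overnight deprotection with ethylenediamine/ethanol. Values average 10 features per array across at least 3 syntheses. The fluorescence readout, with unlabeled-oligo background removed, is given relative to the brightest sequence.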

Row | Sequence | background-corrected fluorescence
1 | TTTTTTCATCATCATCATGCTTTTTTTTTTTTTTTGGGGA [AGGGG] | 0.753 ± 0.014
2 | TTTTTTCATCATCATGAGCATTTTTTTTTTTTTTTGGGCT [TCGGG] | 0.527 ± 0.017
3 | TTTTTTCATCATCATGATCATTTTTTTTTTTTTTTGGGCG [GCGGG] | 0.69 ± 0.031
4 | TTTTTTCATCATCATGATGATTTTTTTTTTTTTTTGGGCC [CCGGG] | 0.517 ± 0.031
5 | TTTTTTCATCATCATGATGCTTTTTTTTTTTTTTTGGGCA [ACGGG] | 0.565 ± 0.022
6 | TTTTTTCATCATCATGCGCATTTTTTTTTTTTTTTGGGAT [TAGGG] | 0.617 ± 0.027
7 | TTTTTTCATCATCATGCTCATTTTTTTTTTTTTTTGGGAG [GAGGG] | 0.614 ± 0.037
8 | TTTTTTCATCATCATGCTGATTTTTTTTTTTTTTTGGGAC [CAGGG] | 0.536 ± 0.029
9 | TTTTTTCATCATCATGCTGCTTTTTTTTTTTTTTTGGGAA [AAGGG] | 0.649 ± 0.032
10 | TTTTTTCATCATGAGCAGCATTTTTTTTTTTTTTTGGCTT [TTCGG] | 0.558 ± 0.029
11 | TTTTTTCATCATGAGCATCATTTTTTTTTTTTTTTGGCTG [GTCGG] | 0.469 ± 0.016
12 | TTTTTTCATCATGAGCATGATTTTTTTTTTTTTTTGGCTC [CTCGG] | 0.425 ± 0.028
13 | TTTTTTCATCATGAGCATGCTTTTTTTTTTTTTTTGGCTA [ATCGG] | 0.483 ± 0.016
14 | TTTTTTCATCATGATCAGCATTTTTTTTTTTTTTTGGCGT [TGCGG] | 0.643 ± 0.035
15 | TTTTTTCATCATGATCATCATTTTTTTTTTTTTTTGGCGG | 0.649 ± 0.014
16 | TTTTTTCATCATGATCATGATTTTTTTTTTTTTTTGGCGC [CGCGG] | 0.627 ± 0.028
17 | TTTTTTCATCATGATCATGCTTTTTTTTTTTTTTTGGCGA [AGCGG] | 0.714 ± 0.035
18 | TTTTTTCATCATGATGAGCATTTTTTTTTTTTTTTGGCCT [TCCGG] | 0.4958 ± 0.0048
19 | TTTTTTCATCATGATGATCATTTTTTTTTTTTTTTGGCCG [GCCGG] | 0.597 ± 0.02
20 | TTTTTTCATCATGATGATGATTTTTTTTTTTTTTTGGCCC [CCCGG] | 0.387 ± 0.028
21 | TTTTTTCATCATGATGATGCTTTTTTTTTTTTTTTGGCCA [ACCGG] | 0.518 ± 0.025
22 | TTTTTTCATCATGATGCGCATTTTTTTTTTTTTTTGGCAT [TACGG] | 0.603 ± 0.011
23 | TTTTTTCATCATGATGCTCATTTTTTTTTTTTTTTGGCAG [GACGG] | 0.527 ± 0.028

Row | Sequence | background-corrected fluorescence
24 | TTTTTTCATCATGATGCTGATTTTTTTTTTTTTTTGGCAC [CACGG] | 0.436 ± 0.03
25 | TTTTTTCATCATGATGCTGCTTTTTTTTTTTTTTTGGCAA [AACGG] | 0.5847 ± 0.005
26 | TTTTTTCATCATGCGCAGCATTTTTTTTTTTTTTTGGATT [TTAGG] | 0.584 ± 0.031
27 | TTTTTTCATCATGCGCATCATTTTTTTTTTTTTTTGGATG [GTAGG] | 0.533 ± 0.031
28 | TTTTTTCATCATGCGCATGATTTTTTTTTTTTTTTGGATC [CTAGG] | 0.445 ± 0.019
29 | TTTTTTCATCATGCGCATGCTTTTTTTTTTTTTTTGGATA [ATAGG] | 0.582 ± 0.026
30 | TTTTTTCATCATGCTCAGCATTTTTTTTTTTTTTTGGAGT [TGAGG] | 0.653 ± 0.017
31 | TTTTTTCATCATGCTCATCATTTTTTTTTTTTTTTGGAGG | 0.689 ± 0.0083
32 | TTTTTTCATCATGCTCATGATTTTTTTTTTTTTTTGGAGC [CGAGG] | 0.549 ± 0.026
33 | TTTTTTCATCATGCTCATGCTTTTTTTTTTTTTTTGGAGA [AGAGG] | 0.726 ± 0.026
34 | TTTTTTCATCATGCTGAGCATTTTTTTTTTTTTTTGGACT [TCAGG] | 0.508 ± 0.033
35 | TTTTTTCATCATGCTGATCATTTTTTTTTTTTTTTGGACG [GCAGG] | 0.567 ± 0.016
36 | TTTTTTCATCATGCTGATGATTTTTTTTTTTTTTTGGACC [CCAGG] | 0.446 ± 0.022
37 | TTTTTTCATCATGCTGATGCTTTTTTTTTTTTTTTGGACA [ACAGG] | 0.602 ± 0.022
38 | TTTTTTCATCATGCTGCGCATTTTTTTTTTTTTTTGGAAT [TAAGG] | 0.594 ± 0.033
39 | TTTTTTCATCATGCTGCTCATTTTTTTTTTTTTTTGGAAG [GAAGG] | 0.593 ± 0.033
40 | TTTTTTCATCATGCTGCTGATTTTTTTTTTTTTTTGGAAC [CAAGG] | 0.463 ± 0.028
41 | TTTTTTCATCATGCTGCTGCTTTTTTTTTTTTTTTGGAAA [AAAGG] | 0.642 ± 0.038
42 | TTTTTTCATGAGCAGCAGCATTTTTTTTTTTTTTTGCTTT [TTTCG] | 0.5304 ± 0.0051
43 | TTTTTTCATGAGCAGCATCATTTTTTTTTTTTTTTGCTTG [GTTCG] | 0.465 ± 0.023
44 | TTTTTTCATGAGCAGCATGATTTTTTTTTTTTTTTGCTTC [CTTCG] | 0.388 ± 0.041
45 | TTTTTTCATGAGCAGCATGCTTTTTTTTTTTTTTTGCTTA [ATTCG] | 0.534 ± 0.026
46 | TTTTTTCATGAGCATCAGCATTTTTTTTTTTTTTTGCTGT [TGTCG] | 0.594 ± 0.011

Row | Sequence | background-corrected fluorescence
47 | TTTTTTCATGAGCATCATCATTTTTTTTTTTTTTTGCTGG [GGTCG] | 0.557 ± 0.039
48 | TTTTTTCATGAGCATCATGATTTTTTTTTTTTTTTGCTGC [CGTCG] | 0.509 ± 0.031
49 | TTTTTTCATGAGCATCATGCTTTTTTTTTTTTTTTGCTGA [AGTCG] | 0.5917 ± 0.0054
50 | TTTTTTCATGAGCATGAGCATTTTTTTTTTTTTTTGCTCT [TCTCG] | 0.497 ± 0.015
51 | TTTTTTCATGAGCATGATCATTTTTTTTTTTTTTTGCTCG | 0.517 ± 0.015
52 | TTTTTTCATGAGCATGATGATTTTTTTTTTTTTTTGCTCC [CCTCG] | 0.396 ± 0.022
53 | TTTTTTCATGAGCATGATGCTTTTTTTTTTTTTTTGCTCA [ACTCG] | 0.485 ± 0.016
54 | TTTTTTCATGAGCATGCGCATTTTTTTTTTTTTTTGCTAT [TATCG] | 0.52 ± 0.019
55 | TTTTTTCATGAGCATGCTCATTTTTTTTTTTTTTTGCTAG [GATCG] | 0.57 ± 0.036
56 | TTTTTTCATGAGCATGCTGATTTTTTTTTTTTTTTGCTAC [CATCG] | 0.424 ± 0.02
57 | TTTTTTCATGAGCATGCTGCTTTTTTTTTTTTTTTGCTAA [AATCG] | 0.534 ± 0.014
58 | TTTTTTCATGATCAGCAGCATTTTTTTTTTTTTTTGCGTT | 0.571 ± 0.032
59 | TTTTTTCATGATCAGCATCATTTTTTTTTTTTTTTGCGTG [GTGCG] | 0.577 ± 0.012
60 | TTTTTTCATGATCAGCATGATTTTTTTTTTTTTTTGCGTC [CTGCG] | 0.481 ± 0.033
61 | TTTTTTCATGATCAGCATGCTTTTTTTTTTTTTTTGCGTA [ATGCG] | 0.604 ± 0.026
62 | TTTTTTCATGATCATCAGCATTTTTTTTTTTTTTTGCGGT [TGGCG] | 0.743 ± 0.026
63 | TTTTTTCATGATCATCATCATTTTTTTTTTTTTTTGCGGG [GGGCG] | 0.701 ± 0.013
64 | TTTTTTCATGATCATCATGATTTTTTTTTTTTTTTGCGGC [CGGCG] | 0.658 ± 0.028
65 | TTTTTTCATGATCATCATGCTTTTTTTTTTTTTTTGCGGA [AGGCG] | 0.786 ± 0.033
66 | TTTTTTCATGATCATGAGCATTTTTTTTTTTTTTTGCGCT [TCGCG] | 0.623 ± 0.022
67 | TTTTTTCATGATCATGATCATTTTTTTTTTTTTTTGCGCG | 1 ± 0.024
68 | TTTTTTCATGATCATGATGATTTTTTTTTTTTTTTGCGCC [CCGCG] | 0.505 ± 0.024
